T1: fluorescently labeled H3 peptide with K4me1 and K9me2 (Homo sapiens)
T1 chain: ARTKQTARKSTGGKAPRKQ

T2: fluorescently labeled H3 peptide without modification (Homo sapiens)
T2 chain: ARTKQTARKSTGGKAPRKQ

T3: fluorescently labeled H3 peptide carrying only K4me1 (Homo sapiens)
T3 chain: ARTKQTARKSTGGKAPRKQ

T4: fluorescently labeled H3 peptide with K9me2 (Homo sapiens)
T4 chain: ARTKQTARKSTGGKAPRKQ


Experiments:
[1] = molecular target: T1, fluorescently labeled H3 peptide with …; assay: FP; details: domain or fragment; chains chain; modification not given; K4me1 (monomethyl-lysine at 4); K9me2 (dimethyl-lysine at 9); FITC-labeled
[2] = molecular target: T2, fluorescently labeled H3 peptide …; assay: FP; details: domain or fragment; chains chain; modification not given; FITC-labeled
[3] = molecular target: T3, fluorescently labeled H3 peptide …; assay: FP; details: domain or fragment; chains chain; modification not given; K4me1 (monomethyl-lysine at 4); FITC-labeled
[4] = molecular target: T4, fluorescently labeled H3 peptide with …; assay: FP; details: domain or fragment; chains chain; modification not given; K9me2 (dimethyl-lysine at 9); FITC-labeled
[5] = molecular target: fluorescently labeled H3 peptide with K4me1 and K9me2; assay: fluorescence polarisation; fluorescence anisotropy titration; 100 nM FITC-labeled peptide in the cuvette, protein added stepwise; 23°C; 100 mM KCl, 20 mM HEPES pH 7.5, 10% v/v glycerol

Kd [1] [nM] | Kd [2] [nM] | Kd [3] [nM] | Kd [4] [nM] | fold preference over the H3K9me2 peptide [5] [fold] | Binder
300 | > 9000 | 3640 | 640 |  | GST-fused Tandem-Tudor domain (TTD) of human UHRF1, residues 126-280, wild type, Q96T88 126-280 (protein) MWDETELGLYKVNEYVDARDTNMGAWFEAQVVRVTRKAPSRDEPCSSTSRPALEEDVIYHVKYDDYPENGVVQMNSRDVRARARTIIKWQDLEVGQVVMLNYNPDNPKERGFWYDAEISRKRETRTARELYANVVLGDDSLNDCRIIFVDEVFKI
 |  |  |  | > 2 | GST-fused Tandem-Tudor domain (TTD) of human UHRF1, residues 126-280, wild type (domain or fragment) MWDETELGLYKVNEYVDARDTNMGAWFEAQVVRVTRKAPSRDEPCSSTSRPALEEDVIYHVKYDDYPENGVVQMNSRDVRARARTIIKWQDLEVGQVVMLNYNPDNPKERGFWYDAEISRKRETRTARELYANVVLGDDSLNDCRIIFVDEVFKI

Source: publication PMC10464304, “Refined read‐out: The hUHRF1 Tandem‐Tudor domain prefers binding to histone H3 tails containing K4me1 in the context of H3K9me2/3” (Protein Science : A Publication of the Protein Society, 2023)
